US20140178935A1 (AVEO PHARMACEUTICALS, published 2014)

Tests used:
[1] = biological target: T1, recombinant human HGF (R&D Systems, Catalog No. 294-HGN-025) (human, UniProt P14210 32-728); experiment: SPR, captured antibody, HGF injected, 25 C
T1 construct: Mature HGF is a disulfide-linked heterodimer of alpha and beta chain cut from one precursor; also called rhHGF (R&D Systems); rhHGF
Procedure: (§1) Mouse anti-human immunoglobulins (Jackson Labs, Catalog No. 209-005) were immobilized on carboxymethylated dextran CM4 sensor chips (BIAcore, Catalog No. BR-1006-68) by amine coupling (BIAcore, Catalog No. BR-1000-50) using a standard coupling protocol according to manufacturer's instructions. The analyses were performed at 25° C. using PBS (GIBCO, Catalog No. 14040-133) containing 0.05% surfactant P20 (BIAcore, Catalog No. BR-1000-54), and 2 mg/mL BSA (EMD, Catalog No. 2930).
(§2) The antibodies were captured in an individual flow cell at a flow rate of 10 μL/min. Injection time was variable for each antibody to yield approximately 20 RU of antibody captured for each cycle. […] The dissociation phase was monitored for 15 or 90 minutes, depending on concentration. The surface then was regenerated with 10 mM Glycine-HCl, pH 2.2 (BIAcore, Catalog No. BR-1003-54) injected for 3 minutes at a flow rate of 60 μL/min before another cycle was initiated.
Kinetic parameters were determined using the kinetic function of the BIAevalutation™ software with reference subtraction.

[2] = biological target: T1, recombinant human HGF (R&D Systems, …); experiment: SPR, captured antibody, HGF injected, 25 C; remark: listed apart in the source
Procedure: as §1, with “209-005) or rabbit anti-mouse immunoglobulins (BIAcore, Catalog No. BR-1005-14)” for “209-005)”, “instructions. […]” for “instructions.”, “25° C. and 37°” for “25°”, “2930) as running buffer.” for “2930).”
as §2, with “[…].” for “μL/min.”, “surface of mouse anti-human immunoglobulins sensor chips was” for “surface”, “then” for “then was”, “initiated. The surface of rabbit anti-mouse immunoglobulins sensor chips was regenerated with 10 mM Glycine-HCl, pH 1.7 (BIAcore, Catalog No. BR-1003-54) injected for 3 minutes at a flow rate of 60 μL/min before another cycle was initiated.” for “initiated.”
Kinetic parameters were determined using the kinetic function of the BIAevaluation software with reference subtraction.

[3] = biological target: T1, recombinant human HGF (R&D Systems, …); experiment: SPR (BIAcore T100), antibody captured on mouse anti-human immunoglobulin CM4 chip, HGF 1.88, 3.75 and 7.5 nM injected, 25 C; three independent experiments
Procedure: Antigen-binding affinity and kinetics of interaction were assessed by surface plasmon resonance technology using a BIAcore T100 instrument. Mouse anti-human immunoglobulins (Jackson ImmunoResearch Labs, 209-005-098) were immobilized on carboxymethylated dextran CM4 sensor chips (BIAcore, Catalog No. BR-1005-34) by amine coupling (BIAcore, Catalog No. BR-1000-50) using a standard coupling protocol according to manufacturer's recommendations. The analyses were performed at 25° C. using PBS (GIBCO, Catalog No. 14040-133) containing 0.05% surfactant P20 (BIAcore, Catalog No. BR-1000-54), 2 mg/mL BSA (EMD, Catalog No. 2930) and 10 mg/mL CM-Dextran Sodium salt (Fluka, Catalog No. 86524) as running buffer.
as §2, with “on” for “in an”, “2.0” for “2.2”, “BR-1003-55)” for “BR-1003-54)”, “initiated. […] Determination of kinetic parameters was achieved using the kinetic function of the BIAevalutation software with reference subtraction.” for “initiated.”

T1 sequence (P14210 32-728 limits assumed): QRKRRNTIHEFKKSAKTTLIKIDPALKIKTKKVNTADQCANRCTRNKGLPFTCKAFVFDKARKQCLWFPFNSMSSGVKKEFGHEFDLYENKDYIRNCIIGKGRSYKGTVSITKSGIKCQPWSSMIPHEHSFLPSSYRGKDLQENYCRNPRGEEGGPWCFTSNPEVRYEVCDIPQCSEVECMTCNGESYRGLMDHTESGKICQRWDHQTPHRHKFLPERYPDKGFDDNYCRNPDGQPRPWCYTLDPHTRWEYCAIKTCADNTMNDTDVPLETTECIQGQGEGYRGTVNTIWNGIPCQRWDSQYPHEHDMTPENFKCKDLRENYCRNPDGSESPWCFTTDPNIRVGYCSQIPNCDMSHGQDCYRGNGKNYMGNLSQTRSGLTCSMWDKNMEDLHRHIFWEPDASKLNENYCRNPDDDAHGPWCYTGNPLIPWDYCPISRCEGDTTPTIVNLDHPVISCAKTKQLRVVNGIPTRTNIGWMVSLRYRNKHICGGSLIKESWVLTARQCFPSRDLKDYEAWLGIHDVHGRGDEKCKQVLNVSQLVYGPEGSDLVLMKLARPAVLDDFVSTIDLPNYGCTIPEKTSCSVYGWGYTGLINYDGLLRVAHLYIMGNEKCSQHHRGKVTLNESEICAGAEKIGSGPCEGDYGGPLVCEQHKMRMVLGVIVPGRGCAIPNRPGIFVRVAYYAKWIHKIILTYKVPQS

B1: sh2B8-9 (G1m(17,1)) = hu2B8 Hv5-51.1 + IgG1 constant region (G1m(17,1) allotype) plus hu2B8 Kv1-39.1 + Kappa constant region (Km(3) allotype, allele 2) (antibody)
heavy: not shown
light: DIQMTQSPSSLSASVGDRVTITCKASENVVSYVSWYQQKPGKAPKLLIYGASNRNTGVPSRFSGSGSGTDFTLTISSLQPEDFATYYCGQSYNYPYTFGQGTKLEIKRTVAAPSVFIFPPSDEQLKSGTASVVCLLNNFYPREAKVQWKVDNALQSGNSQESVTEQDSKDSTYSLSSTLTLSKADYEKHKVYACEVTHQGLSSPVTKSFNRGEC
Question: With B1 as the binder, how does the Kd [1] read?
Answer: Its Kd is 8.1 pM.

Question: What about the koff [1] of the same binder?
Answer: Its koff is 1.7e-05 s⁻¹.

Question: And the kon [1]?
Answer: Its kon is 2e+06 M⁻¹ s⁻¹.

Question: What about the Kd [2] of the same binder?
Answer: The Kd was 8.1 pM.

Question: And the koff [2]?
Answer: The koff was 1.7e-05 s⁻¹.

Question: And the kon [2]?
Answer: Its kon is 2e+06 M⁻¹ s⁻¹.

Question: What about the Kd [3] of the same binder?
Answer: The Kd was 8.1 pM.

Question: And the koff [3]?
Answer: Its koff is 1.7e-05 s⁻¹.

Question: What about the kon [3] of the same binder?
Answer: Its kon is 2e+06 M⁻¹ s⁻¹.
